For series [1], the system named is HeLa Kyoto. Description: thermal stability score vs G1/S (z-score of summed log2 fold changes over temperatures); higher = more thermally stable than in G1/S.
Series [2] relates to HeLa Kyoto. Description: solubility in G1/S (NP-40 vs SDS abundance) (log2 ratio); higher = more soluble. To be noted: cell cycle stage: G1/S.
Series [3] relates to HeLa Kyoto. Description: solubility change mitosis vs G1/S (difference of NP-40 vs SDS log2 ratios) (log2 ratio difference); higher = more soluble in mitosis.
Series [4] concerns HeLa Kyoto. Description: melting temperature (median over replicates), in situ; higher = more thermally stable.
Where [5] appears, read: cell cycle stage: early G1 (4.5 h after nocodazole release).
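For melting temperature (median over replicates), in situ in this document: HeLa Kyoto cells synchronized by double thymidine or nocodazole block, proteins quantified by TMT10plex mass spectrometry, three independent biological replicates.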
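For solubility change mitosis vs G1/S (difference of NP-40 vs SDS log2 ratios) in this document: synchronized HeLa Kyoto cells (double thymidine block for G1/S, nocodazole release for mitosis), protein amounts in NP-40 versus SDS lysates quantified by mass spectrometry, three biological replicates.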
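For solubility in G1/S (NP-40 vs SDS abundance) in this document: HeLa Kyoto cells arrested at G1/S by double thymidine block, proteins quantified by TMT10plex mass spectrometry in mild NP-40 versus SDS extracts, three biological replicates.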
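For thermal stability score vs G1/S (z-score of summed log2 fold changes over temperatures) in this document: synchronized HeLa Kyoto cells, proteins quantified by TMT10plex mass spectrometry, three biological replicates, mitosis taken 0.5 h after nocodazole release, G1/S directly after double thymidine block.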

“MDESALLDLLECPVCLERLDASAKVLPCQHTFCKRCLLGIVGSRNELRCPECRTLVGSGVEELPSNILLVRLLDGIKQRPWKPGPGGGSGTNCTNALRSQSSTVANCSSKDLQSSQGGQQPRVQSWSPPVRGIPQLPCAKALYNYEGKEPGDLKFSKGDIIILRRQVDENWYHGEVNGIHGFFPTNFVQIIKPLPQPPPQCKALYDFEVKDKEADKDCLPFAKDDVLTVIRRVDENWAEGMLADKIGIFPISYVEFNSAAKQLIEWDKPPVPGVDAGECSSAAAQSSTAPKHSDTKKNTKKRHSFTSLTMANKSSQASQNRHSMEISPPVLISSSNPTAAARISELSGLSCSAPSQVHISTTGLIVTPPPSSPVTTGPSFTFPSDVPYQAALGTLNPPLPPPPLLAATVLASTPPGATAAAAAAGMGPRPMAGSTDQIAHLRPQTRPSVYVAIYPYTPRKEDELELRKGEMFLVFERCQDGWFKGTSMHTSKIGVFPGNYVAPVTRAVTNASQAKVPMSTAGQTSRGVTMVSPSTAGGPAQKLQGNGVAGSPSVVPAAVVSAAHIQTSPQAKVLLHMTGQMTVNQARNAVRTVAAHNQERPTAAVTPIQVQNAAGLSPASVGLSHHSLASPQPAPLMPGSATHTAAISISRASAPLACAAAAPLTSPSITSASLEAEPSGRIVTVLPGLPTSPDSASSACGNSSATKPDKDSKKEKKGLLKLLSGASTKRKPRVSPPASPTLEVELGSAELPLQGAVGPELPPGGGHGRAGSCPVDGDGPVTTAVAGAALAQDAFHRKASSLDSAVPIAPPPRQACSSLGPVLNESRPVVCERHRVVVSYPPQSEAELELKEGDIVFVHKKREDGWFKGTLQRNGKTGLFPGSFVENI [SH3RF1]”: the thermal stability score amounted to 0.34 in the series with HeLa Kyoto [1] (setting [5]) and 1.14 with HeLa Kyoto [1] (cell cycle stage: mitosis). Further, the “solubility in G1/S (log2)” value in the series with HeLa Kyoto [2] is 0.517. Moreover, in the series with HeLa Kyoto [3], the “solubility change mitosis (log2)” value is -0.13. For the same sequence, the melting temperature turned out to be 49.3 °C in the series on HeLa Kyoto [4] (cell cycle stage: G1/S) and 51 °C in the series on HeLa Kyoto [4] (cell cycle stage: mitosis).
As for “MDFEDDYTHSACRNTYQGFNGMDRDYGPGSYGGMDRDYGHGSYGGQRSMDSYLNQSYGMDNHSGGGGGSRFGPYESYDSRSSLGGRDLYRSGYGFNEPEQSRFGGSYGGRFESSYRNSLDSFGGRNQGGSSWEAPYSRSKLRPGFMEDRGRENYSSYSSFSSPHMKPAPVGSRGRGTPAYPESTFGSRNYDAFGGPSTGRGRGRGHMGDFGSIHRPGIVVDYQNKSTNVTVAAARGIKRKMMQPFNKPSGTFIKKPKLAKPMEKISLSKSPTKTDPKNEEEEKRRIEARREKQRRRREKNSEKYGDGYRMAFTCSFCKFRTFEEKDIELHLESSSHQETLDHIQKQTKFDKVVMEFLHECMVNKFKKTSIRKQQTNNQTEVVKIIEKDVMEGVTVDDHMMKVETVHCSACSVYIPALHSSVQQHLKSPDHIKGKQAYKEQIKRESVLTATSILNNPIVKARYERFVKGENPFEIQDHSQDQQIEGDEEDEEKIDEPIEEEEDEDEEEEAEEVGEVEEVEEVEEVREGGIEGEGNIQGVGEGGEVGVVGEVEGVGEVEEVEELEEETAKEEPADFPVEQPEEN [ZNF326]”, the figures for the thermal stability score in the series on HeLa Kyoto [1] (setting [5]) and with HeLa Kyoto [1] (cell cycle stage: mitosis) were 3.18 and 7.29, respectively. Also, the “solubility in G1/S (log2)” value in the series with HeLa Kyoto [2] is -0.456. Also, the “solubility change mitosis (log2)” value with HeLa Kyoto [3] was 0.239. In addition, the melting temperature in the series with HeLa Kyoto [4] (cell cycle stage: G1/S) is 47 °C; with HeLa Kyoto [4] (cell cycle stage: mitosis), 49.1 °C.
For “MDFQHRPGGKTGSGGVASSSESNRDRRERLRQLALETIDINKDPYFMKNHLGSYECKLCLTLHNNEGSYLAHTQGKKHQTNLARRAAKEAKEAPAQPAPEKVKVEVKKFVKIGRPGYKVTKQRDSEMGQQSLLFQIDYPEIAEGIMPRHRFMSAYEQRIEPPDRRWQYLLMAAEPYETIAFKVPSREIDKAEGKFWTHWNRETKQFFLQFHFKMEKPPAPPSLPAGPPGVKRPPPPLMNGLPPRPPLPESLPPPPPGGLPLPPMPPTGPAPSGPPGPPQLPPPAPGVHPPAPVVHPPASGVHPPAPGVHPPAPGVHPPAPGVHPPTSGVHPPAPGVHPPAPGVHPPAPGVHPPAPGVHPPAPGVHPPPSAGVHPQAPGVHPAAPAVHPQAPGVHPPAPGMHPQAPGVHPQPPGVHPSAPGVHPQPPGVHPSNPGVHPPTPMPPMLRPPLPSEGPGNIPPPPPTN [SF3A2]”, the results for the thermal stability score in the series with HeLa Kyoto [1] (setting [5]) and in the series on HeLa Kyoto [1] (cell cycle stage: mitosis) were -1.16 and -1.41, respectively. Further, the “solubility in G1/S (log2)” value with HeLa Kyoto [2] stood at 0.0115. Further, the “solubility change mitosis (log2)” value with HeLa Kyoto [3] turned out to be 0.322. The melting temperature with HeLa Kyoto [4] (cell cycle stage: G1/S) amounted to 50 °C; in the series on HeLa Kyoto [4] (cell cycle stage: mitosis) it was 50.5 °C.
Regarding “MDGEEQQPPHEANVEPVVPSEASEPVPRVLSGDPQNLSDVDAFNLLLEMKLKRRRQRPNLPRTVTQLVAEDGSRVYVVGTAHFSDDSKRDVVKTIREVQPDVVVVELCQYRVSMLKMDESTLLREAQELSLEKLQQAVRQNGLMSGLMQMLLLKVSAHITEQLGMAPGGEFREAFKEASKVPFCKFHLGDRPIPVTFKRAIAALSFWQKVRLAWGLCFLSDPISKDDVERCKQKDLLEQMMAEMIGEFPDLHRTIVSERDVYLTYMLRQAARRLELPRASDAEPRKCVPSVVVGVVGMGHVPGIEKNWSTDLNIQEIMTVPPPSVSGRVSRLAVKAAFFGLLGYSLYWMGRRTASLVLSLPAAQYCLQRVTEARHK [TRABD]”, the thermal stability score in the series on HeLa Kyoto [1] (setting [5]) worked out at 0.0844; in the series on HeLa Kyoto [1] (cell cycle stage: mitosis) it was 0.106. For the same sequence, the “solubility in G1/S (log2)” value with HeLa Kyoto [2] was found to be 0.184. Also, the “solubility change mitosis (log2)” value in the series with HeLa Kyoto [3] came out at 0.0374. In addition, the melting temperature in the series on HeLa Kyoto [4] (cell cycle stage: G1/S) worked out at 52.2 °C; in the series with HeLa Kyoto [4] (cell cycle stage: mitosis), 50.2 °C.
Regarding “MDKQNSQMNASHPETNLPVGYPPQYPPTAFQGPPGYSGYPGPQVSYPPPPAGHSGPGPAGFPVPNQPVYNQPVYNQPVGAAGVPWMPAPQPPLNCPPGLEYLSQIDQILIHQQIELLEVLTGFETNNKYEIKNSFGQRVYFAAEDTDCCTRNCCGPSRPFTLRIIDNMGQEVITLERPLRCSSCCCPCCLQEIEIQAPPGVPIGYVIQTWHPCLPKFTIQNEKREDVLKISGPCVVCSCCGDVDFEIKSLDEQCVVGKISKHWTGILREAFTDADNFGIQFPLDLDVKMKAVMIGACFLIDFMFFESTGSQEQKSGVW [PLSCR1]”, the thermal stability score in the series with HeLa Kyoto [1] (setting [5]) was -0.835; in the series with HeLa Kyoto [1] (cell cycle stage: mitosis), -1.61. Moreover, in the series with HeLa Kyoto [2], the “solubility in G1/S (log2)” value is 0.1. For the same sequence, the “solubility change mitosis (log2)” value in the series with HeLa Kyoto [3] was -0.349. For the same sequence, the results for the melting temperature in the series with HeLa Kyoto [4] (cell cycle stage: G1/S) and with HeLa Kyoto [4] (cell cycle stage: mitosis) were 57.7 °C and 57.2 °C, respectively.
On to “MDLFGDLPEPERSPRPAAGKEAQKGPLLFDDLPPASSTDSGSGGPLLFDDLPPASSGDSGSLATSISQMVKTEGKGAKRKTSEEEKNGSEELVEKKVCKASSVIFGLKGYVAERKGEREEMQDAHVILNDITEECRPPSSLITRVSYFAVFDGHGGIRASKFAAQNLHQNLIRKFPKGDVISVEKTVKRCLLDTFKHTDEEFLKQASSQKPAWKDGSTATCVLAVDNILYIANLGDSRAILCRYNEESQKHAALSLSKEHNPTQYEERMRIQKAGGNVRDGRVLGVLEVSRSIGDGQYKRCGVTSVPDIRRCQLTPNDRFILLACDGLFKVFTPEEAVNFILSCLEDEKIQTREGKSAADARYEAACNRLANKAVQRGSADNVTVMVVRIGH [ILKAP]”, for which the thermal stability score came out at 0.735 in the series with HeLa Kyoto [1] (setting [5]) and 1.5 in the series with HeLa Kyoto [1] (cell cycle stage: mitosis). Moreover, the “solubility in G1/S (log2)” value in the series on HeLa Kyoto [2] worked out at 0.239. In addition, the “solubility change mitosis (log2)” value in the series with HeLa Kyoto [3] was -0.0534. Further, the figures for the melting temperature with HeLa Kyoto [4] (cell cycle stage: G1/S) and in the series with HeLa Kyoto [4] (cell cycle stage: mitosis) were 49.3 °C and 49.8 °C, respectively.

These data come from the supplement of paper PMC5998384.
